Measured values taken from patent US6995018.

Target: human complement Factor H (human) (UniProt P08603)
Assay: steady state fluorescence, titration of purified human Factor H with rOPN

human complement Factor H (human), sequence (P08603 19-1231 limits assumed): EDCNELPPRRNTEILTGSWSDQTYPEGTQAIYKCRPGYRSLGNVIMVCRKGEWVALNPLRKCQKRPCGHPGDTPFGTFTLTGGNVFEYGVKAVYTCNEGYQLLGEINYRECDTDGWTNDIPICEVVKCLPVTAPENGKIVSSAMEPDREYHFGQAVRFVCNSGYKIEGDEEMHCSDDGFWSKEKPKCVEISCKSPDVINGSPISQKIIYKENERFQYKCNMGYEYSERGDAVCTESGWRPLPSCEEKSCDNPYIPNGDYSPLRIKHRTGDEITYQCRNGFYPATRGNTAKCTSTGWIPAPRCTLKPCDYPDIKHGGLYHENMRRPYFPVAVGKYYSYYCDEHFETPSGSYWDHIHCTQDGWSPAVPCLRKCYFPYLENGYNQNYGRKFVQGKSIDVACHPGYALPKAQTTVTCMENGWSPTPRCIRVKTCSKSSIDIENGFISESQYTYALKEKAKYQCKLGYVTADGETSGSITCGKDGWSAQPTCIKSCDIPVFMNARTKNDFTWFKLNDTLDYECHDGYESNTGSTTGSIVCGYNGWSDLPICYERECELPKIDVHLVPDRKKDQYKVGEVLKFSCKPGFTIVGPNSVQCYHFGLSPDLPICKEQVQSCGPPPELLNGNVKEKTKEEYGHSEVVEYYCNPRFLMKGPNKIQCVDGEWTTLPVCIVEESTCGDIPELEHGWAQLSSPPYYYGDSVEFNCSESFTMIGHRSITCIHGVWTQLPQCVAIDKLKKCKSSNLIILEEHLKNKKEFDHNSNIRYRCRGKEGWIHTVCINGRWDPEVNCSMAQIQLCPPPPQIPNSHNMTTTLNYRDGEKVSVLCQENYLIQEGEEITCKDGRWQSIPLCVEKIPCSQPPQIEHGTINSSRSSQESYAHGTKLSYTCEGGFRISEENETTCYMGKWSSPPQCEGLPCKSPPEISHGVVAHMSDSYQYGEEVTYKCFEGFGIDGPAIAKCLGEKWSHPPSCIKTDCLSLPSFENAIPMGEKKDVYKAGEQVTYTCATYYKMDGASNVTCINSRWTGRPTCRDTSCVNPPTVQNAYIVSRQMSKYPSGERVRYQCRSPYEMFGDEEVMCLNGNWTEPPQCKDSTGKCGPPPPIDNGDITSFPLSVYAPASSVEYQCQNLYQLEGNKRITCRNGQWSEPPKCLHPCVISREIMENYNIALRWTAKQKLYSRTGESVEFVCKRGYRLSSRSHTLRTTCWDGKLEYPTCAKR

Substance “recombinant osteopontin (rOPN) (from UniProt P10451 17-300) (ligand)” has a stoichiometry (OPN:Factor H) of 1 mol/mol.
